Target: PSD-95, endogenous, in cultured cortical neurons (mouse) (UniProt Q62108)
Assay: cell-based or functional assay

Chain of PSD-95, endogenous, in cultured cortical neurons (mouse) (Q62108 whole entry): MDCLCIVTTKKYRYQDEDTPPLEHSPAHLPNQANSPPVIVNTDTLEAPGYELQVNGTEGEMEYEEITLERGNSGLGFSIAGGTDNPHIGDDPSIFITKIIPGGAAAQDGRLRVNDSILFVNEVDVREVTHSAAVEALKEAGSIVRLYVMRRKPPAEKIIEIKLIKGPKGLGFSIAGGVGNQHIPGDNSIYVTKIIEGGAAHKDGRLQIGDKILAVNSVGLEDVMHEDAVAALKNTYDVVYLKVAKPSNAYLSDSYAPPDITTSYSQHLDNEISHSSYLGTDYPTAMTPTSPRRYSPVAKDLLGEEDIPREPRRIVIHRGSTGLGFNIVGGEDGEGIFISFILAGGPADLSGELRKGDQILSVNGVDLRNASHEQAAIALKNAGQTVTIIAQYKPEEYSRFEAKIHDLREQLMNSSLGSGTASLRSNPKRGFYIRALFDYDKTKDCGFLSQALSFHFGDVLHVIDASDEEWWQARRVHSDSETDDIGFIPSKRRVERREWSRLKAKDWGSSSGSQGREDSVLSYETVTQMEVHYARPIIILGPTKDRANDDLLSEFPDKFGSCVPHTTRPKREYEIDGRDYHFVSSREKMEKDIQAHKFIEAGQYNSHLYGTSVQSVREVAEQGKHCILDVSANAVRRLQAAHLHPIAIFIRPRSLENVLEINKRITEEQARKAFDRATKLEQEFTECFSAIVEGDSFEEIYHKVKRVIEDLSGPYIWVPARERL

## Tat-NR2B9c (peptide)
  NMDA-evoked cGMP production in cortical cultures (surrogate of NO production by nNOS): 39.5%

— patent publication US20050059597A1
